Measurements reported in patent publication US20240287190A1 (THERANOTICS, published 2024).
Positions count from the first letter of the chain named.

T1: recombinant human B7-H3 protein (R&D Systems, Cat #1027-B3-100) (human, UniProt Q5ZPR3-2 29-245)
T1 construct: Bought protein; also called CD276
T1 sequence (looked up): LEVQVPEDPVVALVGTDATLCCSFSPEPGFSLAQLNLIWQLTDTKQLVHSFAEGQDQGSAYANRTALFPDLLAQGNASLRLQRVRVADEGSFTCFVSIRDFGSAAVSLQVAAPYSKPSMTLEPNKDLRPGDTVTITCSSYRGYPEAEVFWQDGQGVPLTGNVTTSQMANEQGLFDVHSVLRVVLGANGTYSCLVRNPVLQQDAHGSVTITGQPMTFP

T2: recombinant human TGFβ2 (R&D Systems, Cat #302-B2-010/CF) (human, UniProt P61812 303-414)
T2 construct: Bought protein
T2 sequence (looked up): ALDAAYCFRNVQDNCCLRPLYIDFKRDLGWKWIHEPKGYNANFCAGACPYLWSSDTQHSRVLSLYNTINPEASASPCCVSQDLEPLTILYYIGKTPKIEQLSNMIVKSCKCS

T3: recombinant human TGFβ3 protein (R&D Systems, Cat #8420-B3-025/CF) (human, UniProt P10600 301-412)
T3 construct: Bought protein
T3 sequence (looked up): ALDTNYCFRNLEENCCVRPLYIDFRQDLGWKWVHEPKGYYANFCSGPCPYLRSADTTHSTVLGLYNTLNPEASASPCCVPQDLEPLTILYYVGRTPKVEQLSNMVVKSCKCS

B1: #1 (mono) B7-H3 mono antibody free of TGFβ binding portion (antibody, human IgG1, N297A, V domains shown)
VH: EVQLLESGGGLVQPGGSLRLSCAASGFTFSSYAMSWVRQAPGKGLEWVSTITGSGGSTYYADSVKGRFTISRDNSKNTLYLQMNSLRAEDTAVYYCARYKSGAFDIWGQGTLVTVSS
VL: EIVLTQSPGTLSLSPGERATLSCRASQGIGNYLGWYQQKPGQAPRLLIYTASSLQSGIPDRFSGSGSGTDFTLTISRLEPEDFAVYYCQQGYSTPSWTFGQGTKVEIK
B2: #2 (mono) B7-H3 mono antibody free of TGFβ binding portion (antibody, human IgG1, N297A, V domains shown)
VH: EVQLLESGGGLVQPGGSLRLSCAASGFTFSAYYMIWVRQAPGKGLEWVSITNPSGGVTSYAQKFQGRFTISRDNSKNTLYLQMNSLRAEDTAVYYCARVGGRGFDIWGQGTLVTVSS
VL: EIVLTQSPGTLSLSPGERATLSCHASQGISNYVAWYQQKPGQAPRLLIYDASNRATGIPDRFSGSGSGTDFTLTISHLEPEDFAVYYCQQSYSTLLTFGQGTKVEIK
B3: #3 (mono) B7-H3 mono antibody free of TGFβ binding portion (antibody, human IgG1, N297A, V domains shown)
VH: EVQLLESGGGLVQPGGSLRLSCAASGFTFSTYYMTWVRQAPGKGLEWVSIINPRGGSTSYAEKFQGRFTISRDNSKNTLYLQMNSLRAEDTAVYYCARWNLGMDVWGQGTLVTVSS
VL: EIVLTQSPGTLSLSPGERATLSCRVSQSISSYLNWYQQKPGQAPRLLIYDASHRATGIPDRFSGSGSGTDFTLTISRLEPEDFAVYYCQQYYAPSVTFGQGTKVEIK
B4: #4 (mono) B7-H3 mono antibody free of TGFβ binding portion (antibody, human IgG1, N297A, V domains shown)
VH: EVQLLESGGGLVQPGGSLRLSCAASGFTFSSYGMHWVRQAPGKGLEWVSAISGSGTSIYYANSVKSRFTISRDNSKNTLYLQMNSLRAEDTAVYYCARGAGWFDYWGQGTLVTVSS
VL: QSVLTQPPSASGTPGQRVTISCSGSTSNIGSNTVNWYQQLPGTAPKLLIYGKNIRPNGVPDRFSGSKSGTSASLAISGLHSEDEADYYCQSYDSSLSGWVFGGGTKLTVL
B5: #1 bispecific molecule (bispecific antibody, human IgG1, N297A)
heavy: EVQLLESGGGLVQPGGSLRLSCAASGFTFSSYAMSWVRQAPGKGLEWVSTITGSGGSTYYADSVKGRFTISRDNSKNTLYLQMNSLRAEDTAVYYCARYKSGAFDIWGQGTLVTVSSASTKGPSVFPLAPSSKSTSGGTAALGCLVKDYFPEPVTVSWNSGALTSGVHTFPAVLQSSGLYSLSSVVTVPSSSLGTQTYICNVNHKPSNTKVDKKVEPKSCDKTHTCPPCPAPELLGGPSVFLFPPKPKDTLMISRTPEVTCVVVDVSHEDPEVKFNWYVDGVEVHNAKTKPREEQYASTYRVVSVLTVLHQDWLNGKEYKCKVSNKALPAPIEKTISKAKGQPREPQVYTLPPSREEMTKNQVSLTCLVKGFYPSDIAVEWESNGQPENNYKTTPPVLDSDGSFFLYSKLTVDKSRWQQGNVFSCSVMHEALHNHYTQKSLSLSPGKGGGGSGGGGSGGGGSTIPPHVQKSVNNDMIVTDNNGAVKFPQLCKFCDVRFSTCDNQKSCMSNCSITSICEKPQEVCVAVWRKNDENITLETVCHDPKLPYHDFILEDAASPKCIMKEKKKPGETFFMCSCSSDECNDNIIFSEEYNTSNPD
VL: B1 VL
notes: also called #1 (TRAP); B7-H3/TGFβ bispecific molecule #1
B6: #2 bispecific molecule (bispecific antibody, human IgG1, N297A)
heavy: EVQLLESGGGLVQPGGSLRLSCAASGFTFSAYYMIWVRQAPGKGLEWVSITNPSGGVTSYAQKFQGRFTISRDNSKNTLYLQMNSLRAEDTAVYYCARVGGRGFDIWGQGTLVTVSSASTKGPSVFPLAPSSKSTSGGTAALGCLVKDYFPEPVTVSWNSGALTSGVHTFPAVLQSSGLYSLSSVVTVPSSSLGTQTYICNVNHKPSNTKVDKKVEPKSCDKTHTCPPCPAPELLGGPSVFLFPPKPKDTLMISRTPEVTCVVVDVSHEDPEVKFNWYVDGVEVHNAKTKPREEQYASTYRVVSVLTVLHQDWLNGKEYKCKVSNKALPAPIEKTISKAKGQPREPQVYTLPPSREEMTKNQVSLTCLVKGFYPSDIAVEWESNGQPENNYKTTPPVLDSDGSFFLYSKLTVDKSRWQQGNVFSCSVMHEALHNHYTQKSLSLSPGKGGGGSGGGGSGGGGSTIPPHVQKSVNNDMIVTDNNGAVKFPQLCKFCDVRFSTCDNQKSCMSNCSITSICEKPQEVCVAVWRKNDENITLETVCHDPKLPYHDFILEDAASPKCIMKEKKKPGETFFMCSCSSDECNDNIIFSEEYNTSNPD
VL: B2 VL
notes: also called #2 (TRAP); B7-H3/TGFβ bispecific molecule #2
B7: #3 bispecific molecule (bispecific antibody, human IgG1, N297A)
heavy: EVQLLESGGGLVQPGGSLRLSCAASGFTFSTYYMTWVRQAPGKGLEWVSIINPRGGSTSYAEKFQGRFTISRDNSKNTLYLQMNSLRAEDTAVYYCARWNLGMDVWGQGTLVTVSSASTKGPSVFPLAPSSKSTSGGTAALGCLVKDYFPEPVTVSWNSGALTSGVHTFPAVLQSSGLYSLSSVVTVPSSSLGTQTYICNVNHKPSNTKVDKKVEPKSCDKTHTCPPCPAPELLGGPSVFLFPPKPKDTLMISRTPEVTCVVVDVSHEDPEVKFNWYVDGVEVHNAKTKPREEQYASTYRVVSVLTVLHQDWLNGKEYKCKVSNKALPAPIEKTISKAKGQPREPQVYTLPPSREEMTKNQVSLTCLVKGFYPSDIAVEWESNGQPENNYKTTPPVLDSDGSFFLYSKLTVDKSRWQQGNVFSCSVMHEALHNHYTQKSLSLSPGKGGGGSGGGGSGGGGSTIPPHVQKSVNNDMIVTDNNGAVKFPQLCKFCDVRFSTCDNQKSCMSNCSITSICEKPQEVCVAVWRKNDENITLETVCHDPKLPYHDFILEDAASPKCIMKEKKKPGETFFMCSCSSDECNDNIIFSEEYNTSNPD
VL: B3 VL
notes: also called #3 (TRAP); B7-H3/TGFβ bispecific molecule #3
B8: #4 bispecific molecule (bispecific antibody, human IgG1, N297A)
heavy: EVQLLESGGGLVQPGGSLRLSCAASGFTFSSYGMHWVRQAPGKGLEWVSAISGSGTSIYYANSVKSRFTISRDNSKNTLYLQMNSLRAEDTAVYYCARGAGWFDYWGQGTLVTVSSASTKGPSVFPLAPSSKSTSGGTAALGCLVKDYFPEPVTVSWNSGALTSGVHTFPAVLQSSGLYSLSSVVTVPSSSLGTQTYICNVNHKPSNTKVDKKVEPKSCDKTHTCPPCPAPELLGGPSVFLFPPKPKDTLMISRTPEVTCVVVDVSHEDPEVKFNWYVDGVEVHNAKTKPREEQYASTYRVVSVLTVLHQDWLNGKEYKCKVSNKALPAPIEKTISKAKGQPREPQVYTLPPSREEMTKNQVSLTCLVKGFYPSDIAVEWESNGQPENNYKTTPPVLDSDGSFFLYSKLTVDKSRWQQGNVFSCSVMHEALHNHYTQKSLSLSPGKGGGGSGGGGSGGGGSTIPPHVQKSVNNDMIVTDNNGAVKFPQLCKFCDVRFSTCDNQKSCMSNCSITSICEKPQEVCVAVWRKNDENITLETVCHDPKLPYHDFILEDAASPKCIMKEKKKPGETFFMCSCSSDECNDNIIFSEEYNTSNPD
VL: B4 VL
notes: also called #4 (TRAP); B7-H3/TGFβ bispecific molecule #4
B9: #5 bispecific molecule (bispecific antibody, human IgG1, N297A)
heavy: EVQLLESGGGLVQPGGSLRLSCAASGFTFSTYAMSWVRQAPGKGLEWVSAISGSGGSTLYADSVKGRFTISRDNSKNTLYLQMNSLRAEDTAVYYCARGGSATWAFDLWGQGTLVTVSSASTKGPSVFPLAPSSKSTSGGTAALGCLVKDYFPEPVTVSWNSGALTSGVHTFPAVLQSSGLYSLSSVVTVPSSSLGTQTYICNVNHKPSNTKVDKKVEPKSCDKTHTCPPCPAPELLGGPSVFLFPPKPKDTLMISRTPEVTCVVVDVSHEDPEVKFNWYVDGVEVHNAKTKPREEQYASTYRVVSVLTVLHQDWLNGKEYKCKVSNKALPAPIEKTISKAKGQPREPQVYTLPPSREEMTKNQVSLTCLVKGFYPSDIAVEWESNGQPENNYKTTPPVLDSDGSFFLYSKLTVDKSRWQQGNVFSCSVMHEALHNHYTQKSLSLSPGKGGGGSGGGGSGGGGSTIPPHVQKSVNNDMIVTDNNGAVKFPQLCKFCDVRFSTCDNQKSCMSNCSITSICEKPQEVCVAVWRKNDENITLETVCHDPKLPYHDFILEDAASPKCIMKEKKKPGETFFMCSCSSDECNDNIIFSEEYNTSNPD
VL: QSVLTQPPSASGTPGQRVTISCSGSSSNIGSNYVYWYQQLPGTAPKLLIYRNNQRPSGVPDRFSGSKSGTSASLAISGLRSEDEADYYCGTWDSSLSGVVFGGGTKLTVL
notes: also called #5 (TRAP); B7-H3/TGFβ bispecific molecule #5
B10: #6 bispecific molecule (bispecific antibody, human IgG1, N297A)
heavy: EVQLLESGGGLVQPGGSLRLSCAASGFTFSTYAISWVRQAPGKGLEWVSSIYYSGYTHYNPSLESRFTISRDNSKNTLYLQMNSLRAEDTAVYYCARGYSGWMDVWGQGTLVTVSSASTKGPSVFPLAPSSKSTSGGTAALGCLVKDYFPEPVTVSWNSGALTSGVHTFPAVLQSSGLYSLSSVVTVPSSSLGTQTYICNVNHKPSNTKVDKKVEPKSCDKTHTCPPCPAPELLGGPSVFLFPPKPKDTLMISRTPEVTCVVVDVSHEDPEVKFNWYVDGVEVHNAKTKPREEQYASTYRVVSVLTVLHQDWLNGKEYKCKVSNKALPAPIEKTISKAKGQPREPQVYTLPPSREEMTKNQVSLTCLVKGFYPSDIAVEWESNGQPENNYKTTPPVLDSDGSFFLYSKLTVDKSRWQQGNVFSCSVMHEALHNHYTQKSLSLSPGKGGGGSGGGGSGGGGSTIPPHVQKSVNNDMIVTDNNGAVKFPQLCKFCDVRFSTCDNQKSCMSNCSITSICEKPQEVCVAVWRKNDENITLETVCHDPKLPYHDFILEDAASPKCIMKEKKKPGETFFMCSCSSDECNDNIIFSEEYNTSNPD
VL: QSVLTQPPSASGTPGQRVTISCGGNNIGSKSVHWYQQLPGTAPKLLIYDNNKRPSGVPNRFSGSKSGTSASLAISGLRSEDEADYYCAAWDDSLNVPVFGGGTKLTVL
notes: also called #6 (TRAP); B7-H3/TGFβ bispecific molecule #6
B11: #7 bispecific molecule (bispecific antibody, human IgG1, N297A)
heavy: not shown
VL: QSVLTQPPSASGTPGQRVTISCTGTSSDIGRYNYVSWYQQLPGTAPKLLIYRNTQRPSGVPDRFSGSKSGTSASLAISGLRSEDEADYYCGTWDSSLNAYVFGGGTKLTVL
notes: also called #7 (TRAP); B7-H3/TGFβ bispecific molecule #7
B12: #8 bispecific molecule (bispecific antibody, human IgG1, N297A)
heavy: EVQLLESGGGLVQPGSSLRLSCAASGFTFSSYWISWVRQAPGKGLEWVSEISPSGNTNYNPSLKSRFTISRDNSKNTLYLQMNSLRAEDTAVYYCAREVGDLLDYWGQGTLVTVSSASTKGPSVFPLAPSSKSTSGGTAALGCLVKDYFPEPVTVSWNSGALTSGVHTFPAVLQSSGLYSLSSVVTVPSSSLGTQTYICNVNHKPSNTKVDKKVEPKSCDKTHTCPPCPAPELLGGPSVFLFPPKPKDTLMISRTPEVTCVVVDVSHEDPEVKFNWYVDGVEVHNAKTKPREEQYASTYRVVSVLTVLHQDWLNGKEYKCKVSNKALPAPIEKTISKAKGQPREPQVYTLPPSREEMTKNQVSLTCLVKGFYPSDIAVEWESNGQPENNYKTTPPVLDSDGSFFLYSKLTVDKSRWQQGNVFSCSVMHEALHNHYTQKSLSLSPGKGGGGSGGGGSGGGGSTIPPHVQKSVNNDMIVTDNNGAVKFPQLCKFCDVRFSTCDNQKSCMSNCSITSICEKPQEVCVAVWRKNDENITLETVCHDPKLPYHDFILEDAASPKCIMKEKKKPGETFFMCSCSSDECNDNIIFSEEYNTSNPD
VL: QSVLTQPPSASGTPGQRVTISCSGSNIGNNYVSWYQQLPGTAPKLLIYQDSKRPSGVPDRFSGSKSGTSASLAISGLRSEDEADYYCLVWDRSSDHFVFGGGTKLTVL
notes: also called #8 (TRAP); B7-H3/TGFβ bispecific molecule #8
B13: #9 bispecific molecule (bispecific antibody, human IgG1, N297A)
heavy: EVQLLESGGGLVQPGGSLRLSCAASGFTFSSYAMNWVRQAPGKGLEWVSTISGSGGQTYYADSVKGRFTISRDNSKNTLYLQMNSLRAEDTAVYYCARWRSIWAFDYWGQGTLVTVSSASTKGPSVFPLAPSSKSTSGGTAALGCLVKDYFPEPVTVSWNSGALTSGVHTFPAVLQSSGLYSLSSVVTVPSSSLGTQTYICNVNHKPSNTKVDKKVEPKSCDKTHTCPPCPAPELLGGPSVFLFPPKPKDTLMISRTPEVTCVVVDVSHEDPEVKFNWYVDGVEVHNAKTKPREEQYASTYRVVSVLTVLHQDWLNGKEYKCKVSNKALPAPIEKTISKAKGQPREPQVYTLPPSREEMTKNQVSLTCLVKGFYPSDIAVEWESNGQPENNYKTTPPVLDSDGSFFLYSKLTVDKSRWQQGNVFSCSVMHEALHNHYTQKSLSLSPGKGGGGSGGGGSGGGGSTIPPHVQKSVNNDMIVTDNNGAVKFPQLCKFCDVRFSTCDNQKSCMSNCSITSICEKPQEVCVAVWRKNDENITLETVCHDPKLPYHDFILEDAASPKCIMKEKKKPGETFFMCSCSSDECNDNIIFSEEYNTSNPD
VL: B10 VL with G23S, G24D, N59D, A88G, A89T, N95S, V96G
notes: also called #9 (TRAP); B7-H3/TGFβ bispecific molecule #9

Target: T4, recombinant human TGFβ1 protein (R&D Systems, Cat #7754-BH-025/CF) (human, UniProt P01137 279-390)
T4 construct: Bought protein
Experiment: bridging ELISA on plate-coated TGFβ1, detected with His-tag human B7-H3; paragraph 158 says the mono antibodies are not bound to TGFβ1

T4 sequence (P01137 279-390 limits assumed): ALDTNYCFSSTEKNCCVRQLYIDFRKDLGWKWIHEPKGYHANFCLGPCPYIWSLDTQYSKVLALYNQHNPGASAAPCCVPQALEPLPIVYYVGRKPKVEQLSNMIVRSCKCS

Row | Binder | binding result
1 | B1 | no binding
2 | B2 | no binding
3 | B3 | no binding
4 | B4 | no binding

Target: T1, recombinant human B7-H3 protein (R&D …)
Experiment: ELISA; plate-coated recombinant human B7-H3, bispecific titrated
Experimental: After coating a plate with recombinant human B7-H3 protein (R&D Systems, Cat #1027-B3-100) (30 μL, 20 nM) in 1×PBS solution, the plate was covered and coated overnight at 2 to 8° C. Thereafter, the wells were washed once with 150 μL PBS per well, and blocked with 120 μL of blocking buffer (1×PBS-T w/3% BSA) per well for 2 hours at room temperature. The blocking buffer was discarded and 30 μL of antibody solution was added using a series of dilution solutions (using the blocking buffer, #1 to #9 bispecific molecules were diluted in serial by two times; 2-fold serial dilution), and reacted at room temperature for 1 hour, then the wells were washed three times with 150 μL of wash buffer per well. 30 μL of HRP conjugate of anti-HA Tag antibody diluted in the blocking buffer was added to each well, and reacted at room temperature for 1 hour. Thereafter, the wells were washed three times with 150 μL of washing buffer per well, the HRP reaction was developed using TMB, the reaction was stopped with 1 N HCl, and then the optical density (OD) was measured at 450 nm.
It was confirmed that #1 to #9 bispecific molecules specifically bind to B7-H3 with excellent binding force.

Row | Binder | EC50 [nM]
5 | B5 | 27.5
6 | B6 | 3.19
7 | B7 | 5.94
8 | B8 | 29.3
9 | B9 | 10.2
10 | B10 | 1.34
11 | B11 | 12.2
12 | B12 | 1.72
13 | B13 | 6.11

Target: T2, recombinant human TGFβ2 (R&D Systems, …)
Experiment: ELISA; plate-coated bispecific, TGFβ2 titrated (EC50 is a TGFβ2 concentration), biotinylated anti-TGFβ2 detection
Experimental: After coating a plate with 1×PBS solution containing #1 to #9 bispecific molecules (30 μL, 0.5 μM), the plate was covered and cultured overnight at 2 to 8° C. Thereafter, the wells were washed once with 150 μL PBS per well, and blocked with 120 µL of blocking buffer (1×PBS-T w/3% BSA) per well for 2 hours at room temperature. The blocking buffer was discarded, recombinant human TGFβ2 (R&D Systems, Cat #302-B2-010/CF) was 4-fold diluted in serial from 30 nM. After adding each diluted solution to the wells by 30 μL per well, it was reacted at room temperature for 1 hour. Then, the wells were washed three times with 150 μL of washing buffer (1×PBS-T) per well, followed by diluting Biotinylated-TGF-beta2 antibody combined with the recombinant human TGFβ2 protein in the blocking buffer. After adding the diluted solution to the wells by 30 μL per well, it was reacted at room temperature for 1 hour. Further, after washing the wells three times with 150 μL of washing buffer (1×PBS-T) per well, 30 μL of streptavidin-HRP diluted in the blocking buffer was added to each well, and reacted at room temperature for 1 hour. After washing the wells three times with 150 μL of washing buffer (1×PBS-T) per well, HRP reaction was developed using TMB, and the reaction was stopped with 30 μL 1 N HCl. Then, the optical density (OD) was measured at 450 nm.

Row | Binder | EC50 [nM]
14 | B5 | 0.136
15 | B6 | 0.14
16 | B7 | 0.076
17 | B8 | 0.13
18 | B9 | 0.143
19 | B10 | 0.083
20 | B11 | 0.12
21 | B12 | 2.08
22 | B13 | 0.143

Target: T4, recombinant human TGFβ1 protein (R&D …)
Experiment: ELISA; plate-coated TGFβ1, bispecific titrated, anti-human IgG1 Fc-HRP
Experimental: (§1) After coating a plate with each of recombinant human TGFβ1 protein (R&D Systems, Cat #7754-BH-025/CF) and TGFβ3 protein (R&D Systems, Cat #8420-B3-025/CF) (30 μL, 0.5 μg/ml) in 1×PBS solution, the plate was covered and cultured overnight at 2 to 8° C. Thereafter, the wells were washed once with 150 μL PBS per well, and blocked with 120 μL of blocking buffer (1×PBS-T w/3% BSA) per well for 2 hours at room temperature. The blocking buffer was discarded and 30 μL solution containing #1 to #9 bispecific molecules (5-fold serial dilution) was added, followed by reaction for 1 hour at room temperature. Then, the wells were washed three times with 150 μL PBS per well. 30 μL of HRP conjugated anti-Human IgG1 Fc Ab diluted in the blocking buffer was added to each well, and reacted at room temperature for 1 hour. Thereafter, the wells were washed three times with 150 μL of washing buffer per well, the HRP reaction was developed using TMB, and the reaction was stopped with 30 μL 1 N HCl. Then, the optical density (OD) was measured at 450 nm.

Row | Binder | EC50 [nM]
23 | B5 | 3.84
24 | B6 | 5.83
25 | B7 | 4.39
26 | B8 | 2.02
27 | B9 | 3.62
28 | B10 | 9.08
29 | B11 | 24.8
30 | B12 | 3.41
31 | B13 | 3.94

Target: T3, recombinant human TGFβ3 protein (R&D …)
Experiment: ELISA; plate-coated TGFβ3, bispecific titrated, anti-human IgG1 Fc-HRP
Experimental: as §1

Row | Binder | EC50 [nM]
32 | B5 | 4.72
33 | B6 | 7.92
34 | B7 | 3.8
35 | B8 | 3.32
36 | B9 | 3.14
37 | B10 | 4.56
38 | B11 | 8.09
39 | B12 | 2.94
40 | B13 | 5.98

Target: T4, recombinant human TGFβ1 protein (R&D …)
Experiment: bridging ELISA; plate-coated TGFβ1, bispecific titrated, detected with His-tag human B7-H3 and anti-His-HRP
Experimental: After coating a plate with the recombinant human TGFβ1 protein (30 μL, 0.5 μg/ml) in 1×PBS solution, the plate was covered and cultured overnight at 2 to 8° C. Thereafter, the wells were washed once with 150 μL PBS per well, and blocked with 120 µL of blocking buffer (1×PBS-T w/3% BSA) per well for 2 hours at room temperature. The blocking buffer was discarded and 4-fold diluted antibody solution was added by 30 μL, followed by reaction for 2 hour at room temperature. Then, the wells were washed three times with 150 μL of washing buffer (1×PBS-T) per well.
Thereafter, 30 μL of His-tag human B7-H3 protein diluted in the blocking buffer was added to each well, and cultured at room temperature for 2 hours. Thereafter, the wells were washed three times with 150 μL of washing buffer per well. 30 μL of HRP conjugate of anti-His tag antibody diluted in the blocking buffer was added to each well, and reacted at room temperature for 1 hour. Thereafter, the wells were washed three times with 150 μL of washing buffer per well, the HRP reaction was developed using TMB, and the reaction was stopped with 30 μL 1 N HCl. Then, the optical density (OD) was measured at 450 nm.

Row | Binder | EC50 [nM]
41 | B5 | 3.83
42 | B6 | 1.43
43 | B7 | 2.11
44 | B8 | 1.96
45 | B9 | 3.74
46 | B10 | 2.21
47 | B11 | 3.15
48 | B12 | 1.98
49 | B13 | 1.56
